# Experimental data: US20210246166A1 (Bayer, published 2021)
# Numbered stars: 1 amine (or outer) side, 2 acyl side, 3 side chain; on linkers, the order of the positions; unused ones are H or OH. Bridge positions count the residues as written; N and C are the ends. Square brackets hold non-standard residues; d marks the D form. Primed or numbered codes have the meaning given here. Ends that are not written are not given here. * marks the point of attachment. Leu(4-F)″ = 4-fluoro-L-leucine, CC(C)(F)C[C@H](N[*:1])C(=O)[*:2]; tBuAla = CC(C)(C)C[C@H](N)C(=O)O; Chg = N[C@H](C(=O)O)C1CCCCC1; NMePro = CN1CCC[C@H]1C(=O)*; NMeA = CN[C@@H](C)C(=O)O; Sar = CNCC(=O)O
# T1: recombinant rat MASP1 active protease (amino acids 302-704, C-terminal His Tag) (rat, UniProt Q8CHN8 302-704)
# T1 sequence: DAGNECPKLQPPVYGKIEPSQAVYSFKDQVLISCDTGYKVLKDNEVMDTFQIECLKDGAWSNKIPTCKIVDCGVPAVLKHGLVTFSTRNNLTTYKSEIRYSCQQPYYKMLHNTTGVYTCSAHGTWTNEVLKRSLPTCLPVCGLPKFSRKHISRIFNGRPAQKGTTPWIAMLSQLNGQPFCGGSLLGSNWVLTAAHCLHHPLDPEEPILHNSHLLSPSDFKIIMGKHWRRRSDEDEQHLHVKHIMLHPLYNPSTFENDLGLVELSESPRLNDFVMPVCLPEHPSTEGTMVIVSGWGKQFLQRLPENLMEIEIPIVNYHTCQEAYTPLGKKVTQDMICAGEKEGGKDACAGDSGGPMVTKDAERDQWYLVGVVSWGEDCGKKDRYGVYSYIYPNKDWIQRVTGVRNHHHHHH
# B1: Example 246: ((N-Me)G)-IC+SRS-((tBu)A)-PPIC+IPD-OH (peptide)
# peptide: [Sar]ICSRS[tBuAla]PPICIPD-OH
# modifications: disulfide 3-11; N-terminus assumed
# SMILES: CC[C@H](C)[C@H](NC(=O)CNC)C(=O)N[C@H]1CSSC[C@@H](C(=O)N[C@H](C(=O)N2CCC[C@H]2C(=O)N[C@@H](CC(=O)O)C(=O)O)[C@@H](C)CC)NC(=O)[C@H]([C@@H](C)CC)NC(=O)[C@@H]2CCCN2C(=O)[C@@H]2CCCN2C(=O)[C@H](CC(C)(C)C)NC(=O)[C@H](CO)NC(=O)[C@H](CCCNC(=N)N)NC(=O)[C@H](CO)NC1=O
# B2: Example 253: ((N-Me)A)-IC+SRS-((tBu)A)-PPIC+IPD-NH2 (peptide)
# peptide: [NMeA]ICSRS[tBuAla]PPICIPD-NH2
# modifications: disulfide 3-11; N-terminus assumed
# SMILES: CC[C@H](C)[C@H](NC(=O)[C@H](C)NC)C(=O)N[C@H]1CSSC[C@@H](C(=O)N[C@H](C(=O)N2CCC[C@H]2C(=O)N[C@@H](CC(=O)O)C(N)=O)[C@@H](C)CC)NC(=O)[C@H]([C@@H](C)CC)NC(=O)[C@@H]2CCCN2C(=O)[C@@H]2CCCN2C(=O)[C@H](CC(C)(C)C)NC(=O)[C@H](CO)NC(=O)[C@H](CCCNC(=N)N)NC(=O)[C@H](CO)NC1=O
# B3: Example 247: AIC+SRSLPP-(Chg)-C+I-NH2 (peptide)
# peptide: AICSRSLPP[Chg]CI-NH2
# modifications: disulfide 3-11; N-terminus assumed
# SMILES: CC[C@H](C)[C@H](NC(=O)[C@@H]1CSSC[C@H](NC(=O)[C@@H](NC(=O)[C@H](C)N)[C@@H](C)CC)C(=O)N[C@@H](CO)C(=O)N[C@@H](CCCNC(=N)N)C(=O)N[C@@H](CO)C(=O)N[C@@H](CC(C)C)C(=O)N2CCC[C@H]2C(=O)N2CCC[C@H]2C(=O)N[C@@H](C2CCCCC2)C(=O)N1)C(N)=O
# B4: Example 248: AIC+SRS-((4-Fluoro)L)-PPIC+IPD-NH2 (peptide)
# peptide: AICSRS[Leu(4-F)″]PPICIPD-NH2
# modifications: disulfide 3-11; N-terminus assumed
# SMILES: CC[C@H](C)[C@H](NC(=O)[C@H](C)N)C(=O)N[C@H]1CSSC[C@@H](C(=O)N[C@H](C(=O)N2CCC[C@H]2C(=O)N[C@@H](CC(=O)O)C(N)=O)[C@@H](C)CC)NC(=O)[C@H]([C@@H](C)CC)NC(=O)[C@@H]2CCCN2C(=O)[C@@H]2CCCN2C(=O)[C@H](CC(C)(C)F)NC(=O)[C@H](CO)NC(=O)[C@H](CCCNC(=N)N)NC(=O)[C@H](CO)NC1=O
# B5: Example 250: ((N-Me)P)-IC+SRS-((tBu)A)-PPIC+IPD-NH2 (peptide)
# peptide: [NMePro]ICSRS[tBuAla]PPICIPD-NH2
# modifications: disulfide 3-11
# SMILES: CC[C@H](C)[C@H](NC(=O)[C@@H]1CCCN1C)C(=O)N[C@H]1CSSC[C@@H](C(=O)N[C@H](C(=O)N2CCC[C@H]2C(=O)N[C@@H](CC(=O)O)C(N)=O)[C@@H](C)CC)NC(=O)[C@H]([C@@H](C)CC)NC(=O)[C@@H]2CCCN2C(=O)[C@@H]2CCCN2C(=O)[C@H](CC(C)(C)C)NC(=O)[C@H](CO)NC(=O)[C@H](CCCNC(=N)N)NC(=O)[C@H](CO)NC1=O
# Target: T1, recombinant rat MASP1 active protease …
# Experiment: cell-based or functional assay
row,Binder,rat MASP1 IC50 [nM]
1,B1,78
2,B2,130
3,B3,700
4,"[(N,N-diMe)A]ICSRS[tBuAla]PPICIPD-NH2 (disulfide 3-11) [Example 243: ((N,N-diMe)A)-IC+SRS-((tBu)A)-PPIC+IPD-NH2]",140
5,B4,260
6,"AICSRSL[(4aR,6aR,9S,11aS)‑11‑Oxo‑2,3,4,4a,6a,7,8,9,11,11a‑decahydro‑1H‑pyrido(3,2-e)pyrrolo(1,2-a)azepine‑9‑carboxylic acid]ICIPD-NH2 (disulfide 3-10)",130
7,B5,77
